Data reported in patent US20250326840A1 (QURE BIOTECHNOLOGY SHANGHAI, published 2025).
Where a chain is given by its changes, count along the chain named. Numbers in names are those of the source.

T1: SIRPα V9 fusion Fc (mouse IgG2a) (human, limits assumed)
T1 chain: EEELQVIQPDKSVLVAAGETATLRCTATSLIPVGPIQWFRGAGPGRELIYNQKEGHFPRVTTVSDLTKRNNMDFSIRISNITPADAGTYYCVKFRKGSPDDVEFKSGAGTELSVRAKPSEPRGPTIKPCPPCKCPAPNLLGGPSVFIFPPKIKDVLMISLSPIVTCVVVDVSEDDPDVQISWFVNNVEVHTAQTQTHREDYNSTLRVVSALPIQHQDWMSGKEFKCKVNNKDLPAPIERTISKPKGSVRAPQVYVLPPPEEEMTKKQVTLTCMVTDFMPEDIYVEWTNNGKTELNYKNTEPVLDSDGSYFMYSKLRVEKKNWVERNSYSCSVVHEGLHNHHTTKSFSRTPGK

T2: SIRPα V4 fusion Fc (mouse IgG2a) (human, limits assumed)
T2 chain: T1 chain with E3G, L14S, T20S, T22I, R24H, S79G

T3: QP533 (SIRPαV4-mFC(mIgG2a)) (human, limits assumed)
T3 construct: also called human SIRPα V4 recombinant protein (QP533)
T3 chain: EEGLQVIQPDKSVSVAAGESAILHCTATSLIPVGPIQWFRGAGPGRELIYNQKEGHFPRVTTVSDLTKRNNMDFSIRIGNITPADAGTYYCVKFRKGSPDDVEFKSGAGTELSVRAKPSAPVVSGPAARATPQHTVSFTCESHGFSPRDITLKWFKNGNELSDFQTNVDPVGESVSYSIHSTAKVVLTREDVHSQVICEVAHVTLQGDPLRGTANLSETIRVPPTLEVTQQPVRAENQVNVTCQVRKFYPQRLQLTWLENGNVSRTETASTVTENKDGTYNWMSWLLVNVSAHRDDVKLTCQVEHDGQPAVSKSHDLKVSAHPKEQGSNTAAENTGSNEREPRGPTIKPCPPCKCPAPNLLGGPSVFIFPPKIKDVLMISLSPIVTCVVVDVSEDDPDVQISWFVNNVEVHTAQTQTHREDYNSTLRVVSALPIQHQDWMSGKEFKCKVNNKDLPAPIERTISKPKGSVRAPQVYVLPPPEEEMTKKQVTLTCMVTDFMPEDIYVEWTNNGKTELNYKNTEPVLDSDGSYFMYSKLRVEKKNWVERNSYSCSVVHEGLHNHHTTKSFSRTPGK

T4: QP534 (SIRPαV5-mFC(mIgG2a)) (human, limits assumed)
T4 construct: also called human SIRPα V5 recombinant protein (QP534)
T4 chain: T3 chain with G3E, S12F, S14L, S20T, I22T, H24R

B1: QP32700279 (antibody, human IgG1, kappa, L234A L235A, V domains shown)
VH: QVQLVQSGAEVKKPGASVKVSCKASGYTFTNYWINWVRQAPGQGLEWIAMIDPSDSETHYNQIFKDRATLTTDTSTSTAYMELRSLRSDDTAVYYCAMDYGSLYAMDYWGRGTLVTVSS
VL: DIVLTQSPDSLAVSLGERATINCRASQSVRSSGYNWIFWYQQKPGQPPKLLIYLASNRDSGVPDRFSGSGSGTDFTLTISSLQAEDVAVYYCQHSRELPTFGQGTKLEIKR
notes: also called SIRPα monoclonal antibody CHO71
B2: QP026249 (KWAR23 analog) (antibody, human IgG4 S228P, kappa)
heavy: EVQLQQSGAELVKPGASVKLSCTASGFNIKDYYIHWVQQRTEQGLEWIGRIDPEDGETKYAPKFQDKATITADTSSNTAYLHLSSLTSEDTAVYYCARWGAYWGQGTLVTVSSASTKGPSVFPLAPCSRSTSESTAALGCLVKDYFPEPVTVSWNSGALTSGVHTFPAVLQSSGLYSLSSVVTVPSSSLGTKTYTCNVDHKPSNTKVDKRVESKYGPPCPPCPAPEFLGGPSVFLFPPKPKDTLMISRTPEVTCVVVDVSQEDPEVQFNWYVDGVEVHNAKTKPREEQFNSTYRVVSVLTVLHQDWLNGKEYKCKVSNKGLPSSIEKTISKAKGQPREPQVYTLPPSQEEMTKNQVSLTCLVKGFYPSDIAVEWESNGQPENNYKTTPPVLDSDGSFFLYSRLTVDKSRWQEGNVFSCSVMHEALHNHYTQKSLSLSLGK
light: QIVLTQSPAIMSASPGEKVTLTCSASSSVSSSYLYWYQQKPGSSPKLWIYSTSNLASGVPARFSGSGSGTSYSLTISSMEAEDAASYFCHQWSSYPRTFGAGTKLELKRTVAAPSVFIFPPSDEQLKSGTASVVCLLNNFYPREAKVQWKVDNALQSGNSQESVTEQDSKDSTYSLSSTLTLSKADYEKHKVYACEVTHQGLSSPVTKSFNRGEC
notes: also called KAWA23 analog; control antibody KWAR23 (QP026249), human IgG4
B3: QP37503751 (1H9 analog) (antibody, human IgG1, kappa, N297A, V domains shown)
VH: QVQLVQSGAEVKKPGASVKVSCKASGYTFTSYWITWVKQAPGQGLEWIGDIYPGSGSTNHIEKFKSKATLTVDTSISTAYMELSRLRSDDTAVYYCATGYGSSYGYFDYWGQGTLVTVSS
VL: DIQMTQSPSSLSASVGDRVTITCRASENIYSYLAWYQQKPGKAPKLLIYTAKTLAEGVPSRFSGSGSGTDFTLTISSLQPEDFATYYCQHQYGPPFTFGQGTKLEIKR
notes: also called hz1H9 hIgG1(N297A)
B4: QP256279 (antibody, human IgG4, V domains shown)
VH: B1 VH
VL: DIVLTQSPDSLAVSLGERATINCRASQSVRSSGYNWIFWYQQKPGQPPKLLIYLASNRDSGVPDRFSGSGSGTDFTLTISSLQAEDVAVYYCQHSRELPTFGQGTKLEIK
notes: Human IgG4 heavy constant region and kappa CL
B5: QP250251 (18D5 analog) (antibody, human IgG4 S228P, kappa, V domains shown)
VH: QVQLQQPGAELVRPGSSVKLSCKASGYTFTSYWVHWVKQRPIQGLEWIGNIDPSDSDTHYNQKFKDKASLTVDKSSSTAYMQLSSLTFEDSAVYYCVRGGTGTMAWFAYWGQGTLVTVSA
VL: DVVMTQTPLSLPVSLGDQASISCRSSQSLVHSYGNTYLYWYLQKPGQSPKLLIYRVSNRFSGVPDRFSGSGSGTDFTLKISRVEAEDLGVYFCFQGTHVPYTFGSGTKLEIKR
notes: also called SIRPα antibody 18D5 from OSE

Biological target: T5, QP536 (SIRPαV7-mFC(mIgG2a)) (human)
T5 construct: also called human SIRPα V7 recombinant protein (QP536)
Assay: ELISA, human SIRPα V7 recombinant protein (QP536) coated, HRP anti-human Fc detection

EC50 | Binder
0.176 nM | B1
0.376 nM | B2
0.247 nM | B3

Biological target: T6, QP537 (SIRPαV8-mFC(mIgG2a)) (human)
T6 construct: also called human SIRPα V8 recombinant protein (QP537)
Assay: ELISA, human SIRPα V8 recombinant protein (QP537) coated, HRP anti-human Fc detection

EC50 | Binder
0.341 nM | B1
0.689 nM | B2
0.908 nM | B3

Biological target: T1, SIRPα V9 fusion Fc (mouse IgG2a)
Assay: ELISA, SIRPα V9-mouse IgG2a Fc coated, anti-hFab detection; unit from the x axis Log(Conc.(nM))

EC50 | Binder
0.0874 nM | B4
0.181 nM | B2
0.157 nM | B5

Biological target: T2, SIRPα V4 fusion Fc (mouse IgG2a)
Assay: ELISA, SIRPα V4-mouse IgG2a Fc coated, anti-hFab detection; unit from the x axis Log(Conc.(nM))

EC50 | Binder
0.0574 nM | B4
0.115 nM | B2
0.125 nM | B5

Biological target: T3, QP533 (SIRPαV4-mFC(mIgG2a))
Assay: ELISA, human SIRPα V4 recombinant protein (QP533) coated, HRP anti-human Fc detection

EC50 | Binder
0.151 nM | B1
0.439 nM | B2
0.539 nM | B5
0.169 nM | B3

Biological target: T4, QP534 (SIRPαV5-mFC(mIgG2a))
Assay: ELISA, human SIRPα V5 recombinant protein (QP534) coated, HRP anti-human Fc detection

EC50 | Binder
0.15 nM | B1
0.418 nM | B2
0.438 nM | B5
0.167 nM | B3
